Measured values from paper PMC4041915, “CBD binding domain fused γ-lactamase from Sulfolobus solfataricus is an efficient catalyst for (-) γ-lactam production” (BMC Biotechnology, 2014).

B1: Cbd-Linker-Gla (cbd-linker-gla fusion enzyme; (+) γ-lactamase Gla) (Saccharolobus solfataricus P2) (protein)
chain: MGIKLPTLEDLREISKQFNLDLEDEELKSFLQLLKLQLESYERLDSLPDYTPRVKYQRTLGRPPMKEENPYGALVWITSIKGKEEGKLKGKRICIKDNVMIAGIPMLNGSKMLEGFVPHMDATVVSRILDEAGEIVAKTTCEDLCFSGGSHTSYPWPVLNPRNPEYMAGGSSSGSAVAVASGYCDMAVGGDQGGSIRIPSSWVGIYGLKPTHGLVPYTGAFSIEPTLDHLGPMANTVKDVALLLEVIAGRDELDSRQPDSLPPPPVKPYSKLIDGDVKDMKVGIVKEGFNWSNSEKDVDELVLDSAKKLEDYGIKVEDTSIPLHRMGLDIWTPIAIEGATATMILGSGVGWGRKGLFETQIADFFGNSLKSRARDLPNTVKGVLMLGYLMIKMYNNRYYAKARNLSIVLKEAYDSALRKYDALIMPTTPMKAMRYKSEPGFDEYFIMALGMINNTAPFDVTGHPAMNIPVGYSNGLPVGLMIIGRHFEEDKVLKLANVFERIKK
B2: Gla-Linker-Cbd (gla-linker-cbd fusion enzyme; (+) γ-lactamase Gla) (Saccharolobus solfataricus P2) (protein)
chain: B1 chain

Substrate: O=C1NC2C=CC1C2
Experiment: purified protein
Conditions: free enzyme, 50 mM phosphate pH 7.0, 70°C (standard assay), 4.6-32.2 mM substrate, racemate taken as the substrate (not stated for the kinetics), only (+) enantiomer hydrolysed

Row | Protein | Km [mM] | Km (preparation has a low-) [mM]
1 | B1 | 14.3 ± 1.6 | –
2 | B2 | – | 5.7 ± 0.1
